The values below come from patent EP4692122A1, “HUMANIZED ANTIBODIES TARGETING EPHA10” (priority 2023, dated 2024).

Assay [1] addresses T1, human EphA10 on MDA-MB-231 human EphA10 overexpressing cell line (human, UniProt Q5JZY3 34-1008).
T1 construct: whole, on cells; also called hEphA10; cell-expressing-EphA10
T1 sequence (looked up): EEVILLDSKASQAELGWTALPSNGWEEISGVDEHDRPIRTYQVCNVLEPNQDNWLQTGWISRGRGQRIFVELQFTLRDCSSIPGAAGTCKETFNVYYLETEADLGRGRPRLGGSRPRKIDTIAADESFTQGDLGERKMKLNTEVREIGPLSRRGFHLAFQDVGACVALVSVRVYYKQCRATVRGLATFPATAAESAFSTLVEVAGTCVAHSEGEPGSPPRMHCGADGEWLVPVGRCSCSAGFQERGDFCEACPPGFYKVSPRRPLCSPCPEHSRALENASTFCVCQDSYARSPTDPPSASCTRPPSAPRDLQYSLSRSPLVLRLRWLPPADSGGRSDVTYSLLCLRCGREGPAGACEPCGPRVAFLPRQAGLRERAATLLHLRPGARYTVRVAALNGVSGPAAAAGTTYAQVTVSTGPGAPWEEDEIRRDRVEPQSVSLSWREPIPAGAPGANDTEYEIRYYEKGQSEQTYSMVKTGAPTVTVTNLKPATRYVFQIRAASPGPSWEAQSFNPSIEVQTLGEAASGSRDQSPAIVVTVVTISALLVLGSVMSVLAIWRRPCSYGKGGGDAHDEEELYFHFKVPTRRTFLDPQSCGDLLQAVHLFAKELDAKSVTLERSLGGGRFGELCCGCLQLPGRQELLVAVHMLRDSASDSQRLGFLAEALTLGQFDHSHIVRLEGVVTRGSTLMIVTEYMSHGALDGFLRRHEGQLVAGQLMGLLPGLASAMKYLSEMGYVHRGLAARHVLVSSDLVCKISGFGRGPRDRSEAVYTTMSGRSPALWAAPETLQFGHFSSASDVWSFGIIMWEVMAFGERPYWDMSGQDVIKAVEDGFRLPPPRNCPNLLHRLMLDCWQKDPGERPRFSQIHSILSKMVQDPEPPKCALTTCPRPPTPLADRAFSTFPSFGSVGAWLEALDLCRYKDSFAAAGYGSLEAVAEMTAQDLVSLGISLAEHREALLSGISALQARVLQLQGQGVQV
In words: flow cytometry on MDA-MB-231 human EphA10 overexpressing cells, 500 ng antibody.

Assay [2] concerns the target T2, mouse EphA10 on mouse EphA10 overexpressing cell line (mouse, UniProt Q8BYG9 23-1007).
T2 construct: whole, on cells; Parent cell line of the mouse EphA10 overexpressing line not clearly stated
T2 sequence (looked up): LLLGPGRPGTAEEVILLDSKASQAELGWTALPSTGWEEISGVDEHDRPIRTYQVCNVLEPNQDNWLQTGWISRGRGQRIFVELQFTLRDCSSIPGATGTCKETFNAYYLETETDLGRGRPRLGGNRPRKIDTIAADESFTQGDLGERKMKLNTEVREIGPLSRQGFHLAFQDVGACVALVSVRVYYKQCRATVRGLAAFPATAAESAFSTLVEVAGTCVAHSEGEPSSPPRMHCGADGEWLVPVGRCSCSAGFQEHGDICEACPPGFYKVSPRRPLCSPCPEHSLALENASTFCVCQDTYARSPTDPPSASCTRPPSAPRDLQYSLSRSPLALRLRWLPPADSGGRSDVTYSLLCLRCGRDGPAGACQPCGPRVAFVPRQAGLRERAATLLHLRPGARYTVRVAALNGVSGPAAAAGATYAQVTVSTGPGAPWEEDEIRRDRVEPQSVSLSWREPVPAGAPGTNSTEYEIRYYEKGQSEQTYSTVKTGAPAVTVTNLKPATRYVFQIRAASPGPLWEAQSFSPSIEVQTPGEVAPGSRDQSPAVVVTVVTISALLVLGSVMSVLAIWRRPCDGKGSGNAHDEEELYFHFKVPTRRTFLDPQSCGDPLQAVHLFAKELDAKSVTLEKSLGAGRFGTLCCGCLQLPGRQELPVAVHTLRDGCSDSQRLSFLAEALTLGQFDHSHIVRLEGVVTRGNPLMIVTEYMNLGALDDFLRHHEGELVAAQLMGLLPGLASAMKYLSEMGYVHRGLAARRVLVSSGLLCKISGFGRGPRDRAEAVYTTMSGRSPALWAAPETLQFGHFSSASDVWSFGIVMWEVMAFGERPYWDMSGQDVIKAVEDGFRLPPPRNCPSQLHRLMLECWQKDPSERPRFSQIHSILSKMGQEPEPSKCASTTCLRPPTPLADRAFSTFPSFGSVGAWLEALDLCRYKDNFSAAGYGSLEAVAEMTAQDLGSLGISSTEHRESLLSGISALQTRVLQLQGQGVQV
Kind of assay: flow cytometry on mouse EphA10 overexpressing cells, 500 ng antibody. (A flow cytometer gives signals particle by particle.)

Assay [3] deals with T3, mEphA10-Fc (mouse EphA10 fused with human Fc) (mouse; human, UniProt Q8BYG9 23-565).
T3 construct: extracellular domain; not shown: human Fc
T3 sequence (looked up): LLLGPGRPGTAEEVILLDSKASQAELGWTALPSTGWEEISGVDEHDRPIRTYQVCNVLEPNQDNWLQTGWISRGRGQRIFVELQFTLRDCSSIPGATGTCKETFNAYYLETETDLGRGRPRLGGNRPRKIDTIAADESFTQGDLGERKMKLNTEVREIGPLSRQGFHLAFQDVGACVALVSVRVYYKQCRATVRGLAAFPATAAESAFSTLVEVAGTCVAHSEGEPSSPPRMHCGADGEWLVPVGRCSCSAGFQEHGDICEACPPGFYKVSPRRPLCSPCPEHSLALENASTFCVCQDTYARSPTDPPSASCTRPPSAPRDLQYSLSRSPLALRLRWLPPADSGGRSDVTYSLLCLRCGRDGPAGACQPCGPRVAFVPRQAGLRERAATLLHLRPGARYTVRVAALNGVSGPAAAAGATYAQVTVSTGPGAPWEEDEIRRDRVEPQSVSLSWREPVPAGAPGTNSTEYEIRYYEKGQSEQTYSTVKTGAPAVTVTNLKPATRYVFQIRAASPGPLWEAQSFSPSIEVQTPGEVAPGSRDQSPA
Kind of assay: ELISA, mEphA10-Fc coated, anti-human kappa HRP. Background: An ELISA detects its analyte on a solid surface through an enzyme-linked reagent.

B1: EphA10-specific humanized antibody 1-1 (antibody, V domains shown)
VH: QVTLKESGPTLVKPTQTLTLTCTFSGFSLSTSGMGVGWIRQPPGKALEWLAHIWWDDVKRYNPALKSRLTITKDTSKNQVVLTMTNMDPVDTATYYCARTSFPAGVDYWGQGTLVTVSS
VL: DVVMTQSPLSLPVTLGQPASISCRSSQSLQNSNGNTCLNWFQQRPGQSPRRLIYRVSNRFSGVPDRFSGSGSGTDFTLKISRVEAEDVGVYYCLQVTHVPFTFGQGTKLEIKR
notes: Expressed in Expi293F cells in IgG form; detected with anti-human kappa chain; also called IMGT 1-1
As to B1, the binding result in assay [1] and in assay [2] was “binds” each time.

B2: antibody A.7 (antibody, V domains shown)
VH: QVTLKESGPTLVKPTQTLTLTCTFSGFSLSTSGMGVGWIRQPPGKALEWLAHIWWDDVKRYNPALKSRLTITKDTSKNQVVLTMTNMDPVDTATYYCARTSFPAGVDYWGQGTLVTVSS
VL: DVVMTQSPLSLPVTLGQPASISCRSSQSLQNSNGNTYLNWFQQRPGQSPRRLIYRVSNRFSGVPDRFSGSGSGTDFTLKISRVEAEDVGVYYCLQGTHVPFTFGQGTKLEIKR
notes: also called A7 antibody
With B2, in assay [3], the binding result was “binds”.

B3: EphA10-specific humanized antibody 1-2 (antibody, V domains shown)
VH: QVTLKESGPTLVKPTQTLTLTCTFSGFSLSTSGMGVGWIRQPPGKALEWLAHIWWDDVKRYNPALKSRLTITKDTSKNQVVLTMTNMDPVDTATYYCARTSFPAGVDYWGQGTLVTVSS
VL: DIVMTQTPLSLSVTPGQPASISCRSSQSLQNSNGNTCLNWYLQKPGQSPQLLIYRVSNRFSGVPDRFSGSGSGTDFTLKISRVEAEDVGVYYCLQVTHVPFTFGQGTKLEIKR
notes: Expressed in Expi293F cells in IgG form; detected with anti-human kappa chain; also called IMGT 1-2
As to B3, the binding result in assay [1] and in assay [2] was “binds” throughout.

B4: antibody 2-W (antibody, V domains shown)
VH: QVTLKESGPTLVKPTQTLTLTCTFSGFSLSTSGMGVGWIRQPPGKALEWLAHIWWDDVKRYNPALKSRLTITKDTSKNQVVLTMTNMDPVDTATYYCARTSFPAGVDYWGQGTLVTVSS
VL: DIVMTQTPLSLSVTPGQPASISCRSSQSLQNSNGNTWLNWYLQKPGQSPQLLIYRVSNRFSGVPDRFSGSGSGTDFTLKISRVEAEDVGVYYCLQVTHVPFTFGQGTKLEIKR
notes: 1-2 with the free light chain CDR cysteine replaced by tryptophan; IgG form; also called 2W antibody; W2
With B4, in assay [3], the binding result is “binds”.
